The target in one assay is T1, His-tagged NOB1 (human, UniProt Q9ULX3 1-412).
T1 construct: also called His-NOB1; source: E. coli BL21 Codon Plus, purified (Ni-NTA, desalted); not shown: His6, N-terminal, kept
T1 sequence (looked up): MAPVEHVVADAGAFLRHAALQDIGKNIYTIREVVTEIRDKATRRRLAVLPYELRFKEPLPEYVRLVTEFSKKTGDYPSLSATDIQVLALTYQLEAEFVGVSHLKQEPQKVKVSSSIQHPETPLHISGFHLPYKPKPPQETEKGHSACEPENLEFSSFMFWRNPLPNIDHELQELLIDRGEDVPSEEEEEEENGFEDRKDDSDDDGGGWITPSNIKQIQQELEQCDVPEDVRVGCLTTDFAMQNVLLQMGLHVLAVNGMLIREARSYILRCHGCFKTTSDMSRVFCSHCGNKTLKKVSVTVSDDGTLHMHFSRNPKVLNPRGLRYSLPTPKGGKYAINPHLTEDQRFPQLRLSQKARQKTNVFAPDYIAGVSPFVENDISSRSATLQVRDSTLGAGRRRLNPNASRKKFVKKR
Nature of the assay: pull-down; 50 ng GST-tagged bait with equal amounts of His-tagged or untagged prey; 50 mM Tris-HCl pH 8.0, 10% glycerol, 300 mM NaCl, 5 mM MgCl2, 0.1% Tween20; 1 h at 4°C; glutathione sepharose; western blotting. The conditions noted are these: both partners purified.

The next assay deals with T2, GST-tagged RIO2 (human, UniProt Q9BVS4-1 1-552).
T2 construct: also called GST-RIO2; source: E. coli BL21 Codon Plus, purified (glutathione sepharose, desalted); not shown: GST, N-terminal, kept
T2 sequence (Q9BVS4 whole entry): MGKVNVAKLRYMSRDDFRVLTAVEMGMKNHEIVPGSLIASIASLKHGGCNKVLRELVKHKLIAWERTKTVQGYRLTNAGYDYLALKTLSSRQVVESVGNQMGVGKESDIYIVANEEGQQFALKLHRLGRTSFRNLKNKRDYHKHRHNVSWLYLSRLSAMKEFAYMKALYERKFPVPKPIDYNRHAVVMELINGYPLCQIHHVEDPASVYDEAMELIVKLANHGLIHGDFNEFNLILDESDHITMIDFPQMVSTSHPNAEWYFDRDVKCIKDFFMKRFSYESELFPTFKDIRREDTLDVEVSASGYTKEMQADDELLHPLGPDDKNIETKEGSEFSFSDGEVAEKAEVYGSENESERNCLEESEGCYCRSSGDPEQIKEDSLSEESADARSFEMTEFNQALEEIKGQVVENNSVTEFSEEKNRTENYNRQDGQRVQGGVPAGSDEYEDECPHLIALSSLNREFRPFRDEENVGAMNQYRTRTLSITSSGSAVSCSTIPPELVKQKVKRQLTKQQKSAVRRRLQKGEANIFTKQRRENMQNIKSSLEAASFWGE
The description is as above. The conditions noted are these: both partners purified.

B1: GST-tagged PNO1 (natural protein)
chain: not shown
notes: also called GST-PNO1; source: E. coli BL21 Codon Plus, purified (glutathione sepharose, desalted); not shown: GST, N-terminal, kept
Take B1: the binding result with His-tagged NOB1 is listed as “binds”.

B2: His-tagged DIM1 (natural protein, human, UniProt Q9UNQ2 1-313, looked up)
chain: MPKVKSGAIGRRRGRQEQRRELKSAGGLMFNTGIGQHILKNPLIINSIIDKAALRPTDVVLEVGPGTGNMTVKLLEKAKKVVACELDPRLVAELHKRVQGTPVASKLQVLVGDVLKTDLPFFDTCVANLPYQISSPFVFKLLLHRPFFRCAILMFQREFALRLVAKPGDKLYCRLSINTQLLARVDHLMKVGKNNFRPPPKVESSVVRIEPKNPPPPINFQEWDGLVRITFVRKNKTLSAAFKSSAVQQLLEKNYRIHCSVHNIIIPEDFSIADKIQQILTSTGFSDKRARSMDIDDFIRLLHGFNAEGIHFS
notes: also called His-DIM1; source: E. coli BL21 Codon Plus, purified (Ni-NTA, desalted); not shown: His6, N-terminal, kept
With B2, the binding result with GST-tagged RIO2 is “binds”.

Values taken from publication PMC6380343, “Interactions and activities of factors involved in the late stages of human 18S rRNA maturation” (RNA Biology, 2019).
